{
  "source": "patent US20240409634A1",
  "about": "(Janssen / Centocor, published 2024)",
  "data": [
    {"target": "human CD33 on CD33-expressing THP-1 cells (human, UniProt P20138 18-364)", "sequence (P20138 18-364)": "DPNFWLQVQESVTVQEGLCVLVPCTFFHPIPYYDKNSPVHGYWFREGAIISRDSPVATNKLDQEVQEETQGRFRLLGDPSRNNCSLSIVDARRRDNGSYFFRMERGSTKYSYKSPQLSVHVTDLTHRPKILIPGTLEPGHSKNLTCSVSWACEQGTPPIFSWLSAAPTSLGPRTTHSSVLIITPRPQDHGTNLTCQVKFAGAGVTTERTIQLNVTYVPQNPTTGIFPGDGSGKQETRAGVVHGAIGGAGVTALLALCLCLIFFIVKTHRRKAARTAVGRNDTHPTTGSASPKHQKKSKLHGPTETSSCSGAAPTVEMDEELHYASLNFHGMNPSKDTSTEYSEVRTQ", "assay": "cell-based or functional assay", "units": {"Cytotox EC50 (nM) Donor 104": "nM", "Cytotox EC50 (nM) Donor 156": "nM"}, "values": [
      {"binder": "scFv-VHH bispecific molecule JL6 x 6H4 (scFv (VL-L-VH)-L-VHH with C-tag) (bispecific antibody) QSVLTQPPSASGTPGQRVTISCSGSSSNIGSNPVNWYQQLPGTAPKLLIYSNNQRPSGVPDRFSGSKSGTSASLAISGLQSEDEADYFCAAWDDSLNGPVFGGGTKLTVLGGSEGKSSGSGSESKSTGGSQVQLQESGPGLVKPSETLSLTCTVSGGSISSYYWGWIRQPPGKGLEWIGYIYYSGSTNYNPSLKSRVTISVDTSKNQFSLKLSSVTAADTAVYYCARMWEILGFDPWGQGTLVTVSSGGGGSEVQLVESGGGLVQAGGSLRLSCAASGRPFSNYGMGWFRQAPGKKREFVAGISWSGGSTDYADSVKGRFTISRDNAKNTVYLQMNSLKPEDTAVYYCAAVFSGAETAYYPSDDYDYWGQGTQVTVSSAAAEPEA", "Cytotox EC50 (nM) Donor 104": 0.0012, "Cytotox EC50 (nM) Donor 156": 0.0013},
      {"binder": "scFv-VHH bispecific molecule JL5 x 6H4 (scFv (VL-L-VH)-L-VHH with C-tag) (bispecific antibody) QSVLTQPPSASGTPGQRVTISCSGSSSNIGSNIVNWYQQFPGTAPKLLIYSNNQRPSGVPDRVSGSKSGTSASLAISGLQSEDEADYYCAAWDDSLNGPVFGPGTKVTVLGGSEGKSSGSGSESKSTGGSQVQLQESGPGLVKPSETLSLTCSVSGASIRNYYWSWIRQTAGKGLEWLGHIYSTGNIHYNPSLKSRVTMSVDTSNNQFSLKLRSVTAADTAVYYCARDNGAALFDYWGQGTLVTVSSGGGGSEVQLVESGGGLVQAGGSLRLSCAASGRPFSNYGMGWFRQAPGKKREFVAGISWSGGSTDYADSVKGRFTISRDNAKNTVYLQMNSLKPEDTAVYYCAAVFSGAETAYYPSDDYDYWGQGTQVTVSSAAAEPEA", "Cytotox EC50 (nM) Donor 104": "~0.0013", "Cytotox EC50 (nM) Donor 156": "~0.0019"},
      {"binder": "scFv-VHH bispecific molecule JL2 x 5D3 (scFv (VL-L-VH)-L-VHH with C-tag) (bispecific antibody) DIVMTQSPLSLPVTPGEPASISCRSSQSLLHSDGYNYLDWYLQKSGQSPQLLIYLGSYRASGVPDRFSGSGSGTDFTLKISRVEAEDVGIYYCMQVLQTPWTFGQGTKVEIKGGSEGKSSGSGSESKSTGGSEVQLVESGGGLVQPGGSLRLSCVVSGFTFSSYWMTWVRQAPGKGLEWVANIKQDGSERYYVDSVKGRFTISRDSAKNSLYLQMNSLRAEDTAVYYCAREVGYNWNQGGYFDYWGQGTLVTVSSGGGGSEVQLVESGGGLVQAGGSLRLSCAASGRPFSNYAMGWFRQAPGKEREFVTVISWSGGSTYYADSVKGRFTISRDNAKNTVYLQMNSLKPEDTAVYYCAAQFSGASTVVAGTALDYDYWGQGTRVTVSSAAAEPEA", "Cytotox EC50 (nM) Donor 104": 0.0027, "Cytotox EC50 (nM) Donor 156": "~0.0019"},
      {"binder": "scFv-VHH bispecific molecule JL4 x 5D3 (scFv (VL-L-VH)-L-VHH with C-tag) (bispecific antibody) DVVMTQSPLSLPVTLGQPASISCRSSQSLVYSDGNTYLNWFQQRPGQSPRRLIYKVSTRDSGVPDRFSGSGSGTDFTLKISRVEAEDVAVYYCLQGTHWPWTFGQGTKVEIKGGSEGKSSGSGSESKSTGGSQVQLVESGGGLVQPGGSLRLSCAASGITFSNYWMSWVRQAPGKGLEWVASIKRDGSDKYYVDSVKGRFTISRDNAKNSLSLQMHSLRAEDTAVYYCAKGEFDYWGQGTLVTVSSGGGGSEVQLVESGGGLVQAGGSLRLSCAASGRPFSNYAMGWFRQAPGKEREFVTVISWSGGSTYYADSVKGRFTISRDNAKNTVYLQMNSLKPEDTAVYYCAAQFSGASTVVAGTALDYDYWGQGTRVTVSSAAAEPEA", "Cytotox EC50 (nM) Donor 104": "~0.027", "Cytotox EC50 (nM) Donor 156": 0.023},
      {"binder": "scFv-VHH bispecific molecule JL2 x 6H4 (scFv (VL-L-VH)-L-VHH with C-tag) (bispecific antibody) DIVMTQSPLSLPVTPGEPASISCRSSQSLLHSDGYNYLDWYLQKSGQSPQLLIYLGSYRASGVPDRFSGSGSGTDFTLKISRVEAEDVGIYYCMQVLQTPWTFGQGTKVEIKGGSEGKSSGSGSESKSTGGSEVQLVESGGGLVQPGGSLRLSCVVSGFTFSSYWMTWVRQAPGKGLEWVANIKQDGSERYYVDSVKGRFTISRDSAKNSLYLQMNSLRAEDTAVYYCAREVGYNWNQGGYFDYWGQGTLVTVSSGGGGSEVQLVESGGGLVQAGGSLRLSCAASGRPFSNYGMGWFRQAPGKKREFVAGISWSGGSTDYADSVKGRFTISRDNAKNTVYLQMNSLKPEDTAVYYCAAVFSGAETAYYPSDDYDYWGQGTQVTVSSAAAEPEA", "Cytotox EC50 (nM) Donor 104": "~0.00097", "Cytotox EC50 (nM) Donor 156": "~0.00077"},
      {"binder": "scFv-VHH bispecific molecule JL4 x 6H4 (scFv (VL-L-VH)-L-VHH with C-tag) (bispecific antibody) DVVMTQSPLSLPVTLGQPASISCRSSQSLVYSDGNTYLNWFQQRPGQSPRRLIYKVSTRDSGVPDRFSGSGSGTDFTLKISRVEAEDVAVYYCLQGTHWPWTFGQGTKVEIKGGSEGKSSGSGSESKSTGGSQVQLVESGGGLVQPGGSLRLSCAASGITFSNYWMSWVRQAPGKGLEWVASIKRDGSDKYYVDSVKGRFTISRDNAKNSLSLQMHSLRAEDTAVYYCAKGEFDYWGQGTLVTVSSGGGGSEVQLVESGGGLVQAGGSLRLSCAASGRPFSNYGMGWFRQAPGKKREFVAGISWSGGSTDYADSVKGRFTISRDNAKNTVYLQMNSLKPEDTAVYYCAAVFSGAETAYYPSDDYDYWGQGTQVTVSSAAAEPEA", "Cytotox EC50 (nM) Donor 104": "~0.0004", "Cytotox EC50 (nM) Donor 156": "~0.00035"},
      {"binder": "scFv-VHH bispecific molecule JL5 x 5D3 (scFv (VL-L-VH)-L-VHH with C-tag) (bispecific antibody) QSVLTQPPSASGTPGQRVTISCSGSSSNIGSNIVNWYQQFPGTAPKLLIYSNNQRPSGVPDRVSGSKSGTSASLAISGLQSEDEADYYCAAWDDSLNGPVFGPGTKVTVLGGSEGKSSGSGSESKSTGGSQVQLQESGPGLVKPSETLSLTCSVSGASIRNYYWSWIRQTAGKGLEWLGHIYSTGNIHYNPSLKSRVTMSVDTSNNQFSLKLRSVTAADTAVYYCARDNGAALFDYWGQGTLVTVSSGGGGSEVQLVESGGGLVQAGGSLRLSCAASGRPFSNYAMGWFRQAPGKEREFVTVISWSGGSTYYADSVKGRFTISRDNAKNTVYLQMNSLKPEDTAVYYCAAQFSGASTVVAGTALDYDYWGQGTRVTVSSAAAEPEA", "Cytotox EC50 (nM) Donor 104": "~0.00093", "Cytotox EC50 (nM) Donor 156": "~0.0007"},
      {"binder": "scFv-VHH bispecific molecule JL1 x 5D3 (scFv (VL-L-VH)-L-VHH with C-tag) (bispecific antibody) DIVMTQSPLSLPVTPGEPASISCKSSQSLLFSNGYKFLDWYLQRPGQSPQLLIYLGSYRASGVPDRFSGSGSGTDFTLKISRVEAEDVGLYYCMQALQTPPTFGGGTKVEIKGGSEGKSSGSGSESKSTGGSEVQLVESGGGLVQPGGSLKVSCEASGFTFSVSAIHWVRQASGKGLEWIGRIRSKGNSYATAYAASVKGRFTISRDDSKNTAYLQMDSLKTEDTAVYYCTRHNDKWNYYGLDVWGQGTTVTVSSGGGGSEVQLVESGGGLVQAGGSLRLSCAASGRPFSNYAMGWFRQAPGKEREFVTVISWSGGSTYYADSVKGRFTISRDNAKNTVYLQMNSLKPEDTAVYYCAAQFSGASTVVAGTALDYDYWGQGTRVTVSSAAAEPEA", "Cytotox EC50 (nM) Donor 104": "~0.61", "Cytotox EC50 (nM) Donor 156": "~0.43"},
      {"binder": "scFv-VHH bispecific molecule JL3 x 6H4 (scFv (VL-L-VH)-L-VHH with C-tag) (bispecific antibody) QSVLTQPPSASGTPGQRVTISCSGSSSNIGSNIVNWYQQFPGTAPKLLLYSDNQRPSGVPDRFSGSKSGTSASLAISGLQSEDEADYYCAAWDDSLNGPVFGTGTKVTVLGGSEGKSSGSGSESKSTGGSQVQLQESGPGLVKPSETLSLTCSVSGGSIRNYYWSWIRQSAGKELEWFGHIFSTGHINYDSSLKSRVTMSVDTSNNQFSLKLRSVTAADTAVYYCARDNGAALFDFWGQGTLVTVSSGGGGSEVQLVESGGGLVQAGGSLRLSCAASGRPFSNYGMGWFRQAPGKKREFVAGISWSGGSTDYADSVKGRFTISRDNAKNTVYLQMNSLKPEDTAVYYCAAVFSGAETAYYPSDDYDYWGQGTQVTVSSAAAEPEA", "Cytotox EC50 (nM) Donor 104": "~0.00079", "Cytotox EC50 (nM) Donor 156": "~0.00099"},
      {"binder": "scFv-VHH bispecific molecule JL6 x 5D3 (scFv (VL-L-VH)-L-VHH with C-tag) (bispecific antibody) QSVLTQPPSASGTPGQRVTISCSGSSSNIGSNPVNWYQQLPGTAPKLLIYSNNQRPSGVPDRFSGSKSGTSASLAISGLQSEDEADYFCAAWDDSLNGPVFGGGTKLTVLGGSEGKSSGSGSESKSTGGSQVQLQESGPGLVKPSETLSLTCTVSGGSISSYYWGWIRQPPGKGLEWIGYIYYSGSTNYNPSLKSRVTISVDTSKNQFSLKLSSVTAADTAVYYCARMWEILGFDPWGQGTLVTVSSGGGGSEVQLVESGGGLVQAGGSLRLSCAASGRPFSNYAMGWFRQAPGKEREFVTVISWSGGSTYYADSVKGRFTISRDNAKNTVYLQMNSLKPEDTAVYYCAAQFSGASTVVAGTALDYDYWGQGTRVTVSSAAAEPEA", "Cytotox EC50 (nM) Donor 104": 0.0044, "Cytotox EC50 (nM) Donor 156": 0.0029},
      {"binder": "scFv-VHH bispecific molecule JL1 x 6H4 (scFv (VL-L-VH)-L-VHH with C-tag) (bispecific antibody) DIVMTQSPLSLPVTPGEPASISCKSSQSLLFSNGYKFLDWYLQRPGQSPQLLIYLGSYRASGVPDRFSGSGSGTDFTLKISRVEAEDVGLYYCMQALQTPPTFGGGTKVEIKGGSEGKSSGSGSESKSTGGSEVQLVESGGGLVQPGGSLKVSCEASGFTFSVSAIHWVRQASGKGLEWIGRIRSKGNSYATAYAASVKGRFTISRDDSKNTAYLQMDSLKTEDTAVYYCTRHNDKWNYYGLDVWGQGTTVTVSSGGGGSEVQLVESGGGLVQAGGSLRLSCAASGRPFSNYGMGWFRQAPGKKREFVAGISWSGGSTDYADSVKGRFTISRDNAKNTVYLQMNSLKPEDTAVYYCAAVFSGAETAYYPSDDYDYWGQGTQVTVSSAAAEPEA", "Cytotox EC50 (nM) Donor 104": 0.011, "Cytotox EC50 (nM) Donor 156": 0.0098},
      {"binder": "scFv-VHH bispecific molecule JL3 x 5D3 (scFv (VL-L-VH)-L-VHH with C-tag) (bispecific antibody) QSVLTQPPSASGTPGQRVTISCSGSSSNIGSNIVNWYQQFPGTAPKLLLYSDNQRPSGVPDRFSGSKSGTSASLAISGLQSEDEADYYCAAWDDSLNGPVFGTGTKVTVLGGSEGKSSGSGSESKSTGGSQVQLQESGPGLVKPSETLSLTCSVSGGSIRNYYWSWIRQSAGKELEWFGHIFSTGHINYDSSLKSRVTMSVDTSNNQFSLKLRSVTAADTAVYYCARDNGAALFDFWGQGTLVTVSSGGGGSEVQLVESGGGLVQAGGSLRLSCAASGRPFSNYAMGWFRQAPGKEREFVTVISWSGGSTYYADSVKGRFTISRDNAKNTVYLQMNSLKPEDTAVYYCAAQFSGASTVVAGTALDYDYWGQGTRVTVSSAAAEPEA", "Cytotox EC50 (nM) Donor 104": "~0.0013", "Cytotox EC50 (nM) Donor 156": "~0.0008"}
    ]}
  ]
}
